“Also recorded” adds a separate entry of the source.
What was measured:
p75^NTR [1] = biological target: T1, p75^NTR (Mus musculus, UniProt Q9Z0W1); assay: OVA-mediated allergic asthma induced by intratracheal OVA-loaded PDCs; format: in vivo
T1 construct: endogenous in cells; host or cells: murine plasmacytoid dendritic cells differentiated in vitro from bone marrow with Flt3-L (p75NTR+/+ wildtype; p75NTR-/- as control)
T1 sequence (Q9Z0W1 32-427): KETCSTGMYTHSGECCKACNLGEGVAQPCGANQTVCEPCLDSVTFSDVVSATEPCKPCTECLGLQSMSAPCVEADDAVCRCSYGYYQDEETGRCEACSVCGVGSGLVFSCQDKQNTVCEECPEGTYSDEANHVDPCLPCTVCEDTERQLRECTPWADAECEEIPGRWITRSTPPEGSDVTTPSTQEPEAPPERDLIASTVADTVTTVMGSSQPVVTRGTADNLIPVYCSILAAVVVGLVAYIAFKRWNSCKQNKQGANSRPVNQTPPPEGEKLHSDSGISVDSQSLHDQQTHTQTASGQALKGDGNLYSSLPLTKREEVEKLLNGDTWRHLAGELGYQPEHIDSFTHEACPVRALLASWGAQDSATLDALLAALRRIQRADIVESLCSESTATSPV
Excerpt: Heterozygous p75^NTR knockout mice (p75^NTR+/−) were purchased from The Jackson Laboratory (Bar Harbor, Me., USA) and bred under pathogen-free conditions in the animal facility of the TU Dresden. Male and female p75^NTR+/+ and p75^NTR−/− mice were used at 10-12 weeks of age for experiments.
Murine PDC were generated in vitro as follows: Bone marrow cells were isolated by flushing femur and tibia of mice. Erythrocytes were lysed using ACK buffer. Remaining cells were washed and cultured at a density of 2×10^6 cells per ml in RPMI 1640 medium supplemented with 10% FCS, 1 mM sodium pyruvat, 2 mM L-glutamine, 100 IU per ml penicillin, 100 μg/ml streptomycin, 10 mM HEPES buffer and 0.1 mM β-mercaptoethanol. To differentiate bone marrow cells into PDCs, 100 ng/ml Flt3-L (fms-like tyrosine kinase 3-ligand) was added to the cells. After 8 days of culture PDCs were enriched by removing the CD11b^+ fraction using CD11b Microbeads (Miltenyi Biotec) according to manufacturer instructions. Dead cells were excluded using Dead cell removal Kit (Miltenyi Biotec). Purity of PDCs was evaluated by flow cytometry (CD11b^−CD11c^+B220^+Siglec-H^+).
To induce allergic asthma, in vitro generated PDCs were incubated with 100 μg/ml ovalbumin (OVA; grade V; Sigma-Aldrich) for 24 h. To sensitize mice, 1×10^6 OVA-loaded PDCs were injected intratracheally to the lungs of anesthetized mice using 24GA i.v. cannula (BD Neoflon™). Control animals received either the same amount of PDCs without OVA or PBS. After 10 days, mice were exposed to 1% w/v OVA-aerosol for 30 min on 3 consecutive days in order to induce allergic reaction. 24 h after last provocation, animals were sacrificed and the immune reaction was examined based on the bronchoalveolar lavage fluid (BALF) cell composition (eosinophils, lymphocytes, macrophages) and pro-inflammatory cytokines spectrum, lung histology and blood serum OVA-specific IgE levels.
BALF cells were quantified by flow cytometry. Cells were preincubated with FcR blocking reagent to avoid a non-specific binding. The following antibodies were used for staining: CD3-V500, CD4-V450, CD8-PE Cy7, CD11c-APC Cy7, B220-PE, F4/80-PerCP, SiglecF-AF647, Ly6G-FITC. Among lymphocytes (FSC^low/SSC^low) the CD4^+ T helper cells were designated as CD3^posCD4^pos; the CD8^+ T helper cells as CD3^posCD8^pos; B-cells as CD3^negB220^pos; among granulocytes (FSC^low/SSC^high, Ly6G^pos) eosinophils were assigned as SiglecF^posCD11c^neg and neutrophils as SiglecF^neg. Macrophages were assigned as FSC^high highly autofluorescent CD11c^posF4/80^pos cells. Additionally, the cytospins of collected cells were prepared and stained according to Pappenheim's method.
BALF supernatant was used for quantification of IL-4, IL-5 and IL-13 by ELISA (eBioscience) according to manufacturer instruction.
Lungs were perfused with PBS and fixed in 4% v/v formaldehyde. 4 μm sections of paraffin-embedded lungs were stained with PAS staining for quantification of inflammation and GobleT-cell hyperplasia.
NGF is present in the lung and increased during inflammatory processes such as allergic asthma. To investigate the impact of NGF on PDCs during allergen-mediated immune response, p75^NTR+/+ PDCs were incubated with ovalbumin (OVA) in the presence or absence of NGF (100 ng/ml) prior intratracheal instillation to p75^NTR+/+ mice.
To substantiate the p75^NTR dependent impact of NGF on PDCs during allergen-mediated immune response, p75^NTR+/+ PDCs were incubated with ovalbumin (OVA) and NGF (100 ng/ml) in the presence or absence of the p75^NTR-specific inhibitory peptide PEP5 prior intratracheal instillation to p75^NTR+/+ mice.

p75^NTR [2] = biological target: T1, p75^NTR; assay: Western blotting of TLR signalling proteins in CpG treated murine PDCs; format: cell-based
Excerpt: To investigate the mechanisms underlying these effects, we analysed PDCs treated with CPG-ODNs Class A (FIG. 3F) or Class B (FIG. 3G) using western blotting.

p75^NTR [3] = biological target: T2, p75^NTR (Homo sapiens, UniProt P08138); assay: Th2 prone GvHD xenotransplantation model: NSG mice given human autologous T-cells and PDCs
T2 sequence (P08138 29-427): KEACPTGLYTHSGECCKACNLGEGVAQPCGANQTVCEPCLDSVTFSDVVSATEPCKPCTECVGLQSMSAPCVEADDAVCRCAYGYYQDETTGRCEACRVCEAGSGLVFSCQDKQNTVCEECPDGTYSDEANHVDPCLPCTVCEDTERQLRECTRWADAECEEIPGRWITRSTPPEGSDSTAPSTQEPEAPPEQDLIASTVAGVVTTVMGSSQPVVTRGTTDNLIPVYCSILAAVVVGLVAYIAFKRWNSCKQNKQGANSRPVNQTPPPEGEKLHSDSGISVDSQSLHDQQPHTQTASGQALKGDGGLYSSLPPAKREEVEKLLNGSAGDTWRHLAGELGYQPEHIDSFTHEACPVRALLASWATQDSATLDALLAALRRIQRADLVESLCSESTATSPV
Experimental: Recipient mice from NSG mouse strain were pre-condition by irradiation with 3 Gy 24 hours before transplantation of human cells
For scoring of GvHD incidence and survival transplanted mice were monitored daily for weight, behaviour, skin, activity, fur and other parameters.
Human, autologous T-cells and PDCs were stimulated either with CpG B or not. Overnight co-cultured was done in the absence or presence of NGF. One day later human cells were transplanted into irradiated NSG mice by i.v. injection.

[4] = p75^NTR+/+ PDCs incubated with OVA in presence of NGF (100 ng/ml) vs OVA alone, then intratracheal instillation to p75^NTR+/+ mice
[5] = CpG A stimulated p75^NTR+/+ PDCs, NGF added
[6] = p75^NTR+/+ PDCs co-incubated with CpG B and NGF

NGF: Nerve growth factor, best characterized neurotrophin; natural p75^NTR agonist (R&D Systems)
number of macrophages in BALF (p75^NTR [1]; OVA up-take by PDCs in presence of NGF vs OVA alone): decreased | production of Th2 cytokines (IL-4, IL-5 and IL-13) in the lung (p75^NTR [1]; OVA-loaded PDCs treated with NGF vs pulsed with OVA in absence of NGF): increased production | inflammatory phenotype in the lung (histology: perivascular inflammation, mucus production) (p75^NTR [1]; PDCs treated with NGF during OVA-uptake): potentiated the inflammatory phenotype in the lung | numbers of eosinophils in BALF (p75^NTR [1]; [4]): significantly augmented | numbers of lymphocytes in BALF (p75^NTR [1]; [4]): significantly augmented | induction of airway inflammation by p75^NTR−/− PDCs (p75^NTR [1]; p75^NTR−/− PDCs loaded with OVA in presence or absence of NGF, data not shown): not able to induce airway inflammation | activation (phosphorylation) of IRF-3, IRF7, IKK and c-Jun (p75^NTR [2]; [5]): reduced activation | expression of MyD88 and TRAF6 (p75^NTR [2]; [5]): reduced expression | CpG A-induced phosphorylation of IRF3 and IRF7 (p75^NTR [2]; p75^NTR+/+ PDCs): attenuated | activation (phosphorylation) of IRF3, IRF7, IKK and c-Jun (p75^NTR [2]; [6]): increased | expression of MyD88 and TRAF3 (p75^NTR [2]; [6]): increased expression | levels of CpG-induced phosphorylation of IRF3 and IRF7 in p75^NTR−/− pDCs (p75^NTR [2]; p75^NTR−/− pDCs): did not alter | mortality (survival) (p75^NTR [3]; CpG B stimulated PDCs co-cultured in presence of NGF before transplantation): significantly increased mortality | severity of GvHD (cumulative GvHD incidence) (p75^NTR [3]; CpG B stimulated PDCs co-cultured with T-cells in presence of NGF before i.v. transplantation, 12 weeks): increased severity of GvHD | cumulative GvHD incidence or survival without CpG B (p75^NTR [3]; PDCs cultured without TLR stimulating CpG B, data not shown): no NGF dependent effect; also recorded: abolished the accelerating NGF effect
